Biological target: T1, alpha-fetoprotein (AFP) (UniProt P02771 19-609)
T1 sequence: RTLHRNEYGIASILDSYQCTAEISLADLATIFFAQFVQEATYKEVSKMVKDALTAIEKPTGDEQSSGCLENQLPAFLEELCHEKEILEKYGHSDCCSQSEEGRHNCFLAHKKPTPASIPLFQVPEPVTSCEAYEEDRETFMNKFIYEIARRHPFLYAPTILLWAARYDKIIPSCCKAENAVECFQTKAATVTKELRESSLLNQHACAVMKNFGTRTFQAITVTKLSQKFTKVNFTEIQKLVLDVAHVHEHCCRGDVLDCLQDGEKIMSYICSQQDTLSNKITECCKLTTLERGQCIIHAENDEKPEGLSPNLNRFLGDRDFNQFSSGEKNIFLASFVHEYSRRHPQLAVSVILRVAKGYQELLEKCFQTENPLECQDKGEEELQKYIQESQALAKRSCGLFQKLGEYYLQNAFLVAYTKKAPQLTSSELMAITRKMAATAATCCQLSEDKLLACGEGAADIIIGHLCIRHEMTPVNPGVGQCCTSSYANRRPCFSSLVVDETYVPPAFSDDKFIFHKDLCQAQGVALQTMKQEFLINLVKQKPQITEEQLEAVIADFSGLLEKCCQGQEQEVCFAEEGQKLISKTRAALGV
Experiment: electrochemical aptasensor (DPV); signal-on; log-linear 1-300 ng/mL, LOD 0.05 ng/mL (not a Kd); Optimized: pH 7, 4 uM aptamer, 40 min aptamer and 30 min AFP incubation; PBS (0.01 M) listed as reagent; temperature not stated for binding
Settings: protein: commercial; label: 3'-methylene blue

B1: AFP aptamer (ssDNA)
DNA: GTGACGCTCCTAACGCTGACTCAGGTGCAGTTCTCGACTCGGTCTTGATGTGGGTCCTGTCCGTCCGAACCAATC
modifications: 5'-SH; 3'-methylene blue
binding result: binds

Reference: publication PMC11678932, “A Signal-On Microelectrode Electrochemical Aptamer Sensor Based on AuNPs–MXene for Alpha-Fetoprotein Determination”
